Experimental findings from US20230340061A1, “PEPTIDES AND METHODS FOR THE TREATMENT OF MULTIPLE SCLEROSIS” (IMCYSE SA, priority 2020, published 2023) are described below.

The target of assay [1] is T1, soluble HLA-DRB1*03:01 human MHC II protein (human).
T1 construct: Soluble protein purchased from the Benaroya Research Institute; also called HLA-DR3; DR3
In words: soluble-phase competition vs biotin-labelled control peptide, Eu3+-streptavidin time-resolved fluorescence.

The target of assay [2] is T2, soluble HLA-DRB1*04:01 human MHC II protein (human).
T2 construct: Soluble protein purchased from the Benaroya Research Institute; also called HLA-DR4; DR4
Described as above.

B1: P1 peptide HCHGCGGFLRVPCWKI (peptide)
peptide: HCHGCGGFLRVPCWKI
notes: Synthetic; disclosed in WO2017182528; also called control P1 peptide; prior art peptide P1
Turning to B1, the binding result in assay [1] and in assay [2] was “binds” throughout.

B2: P7 peptide HCPYCGGFLRVPCWKI (peptide)
peptide: HCPYCGGFLRVPCWKI
notes: P1 with the motif HCHGC replaced by HCPYC
For the molecule B2, the binding result in assay [1] and in assay [2] was “binds” in each case.

B3: P9 peptide KCRCVRYFLRVPSWKITLFKK (peptide)
peptide: KCRCVRYFLRVPSWKITLFKK
notes: P4 with the motif KHCPYC replaced by KCRC
Consider B3, for which the binding result in assay [1] and in assay [2] was “binds” in each case.

KHCPYCGGFLRVPSWKITLFKK (P4 with the linker VRY replaced by GG) [P11 peptide KHCPYCGGFLRVPSWKITLFKK]: the binding result in assay [1] and in assay [2] was “binds” each time.

Consider KHCPYCVRYFLRVPSWKITLFKK (Synthetic) [P4 peptide KHCPYCVRYFLRVPSWKITLFKK], for which the binding result in assay [1] and in assay [2] was “binds” each time.

In the case of KHCPYCVRYFLRVPCWKITLFKK (Synthetic) [P5 peptide KHCPYCVRYFLRVPCWKITLFKK], the binding result in assay [1] and in assay [2] was “binds” in each case.

B4: P8 peptide KHCHGCVRYFLRVPSWKITLFKK (peptide)
peptide: KHCHGCVRYFLRVPSWKITLFKK
notes: P4 with the motif KHCPYC replaced by KHCHGC
In the case of B4, the binding result in assay [1] and in assay [2] was “binds” in each case.

B5: P10 peptide KCRPYCVRYFLRVPSWKITLFKK (peptide)
peptide: KCRPYCVRYFLRVPSWKITLFKK
notes: P4 with the motif KHCPYC replaced by KCRPYC
As for B5, the binding result in assay [1] and in assay [2] was “binds” each time.

In the case of HCHGCVRYFLRVPCWKI (P1 with the linker GG replaced by VRY) [P6 peptide HCHGCVRYFLRVPCWKI], the binding result in assay [1] and in assay [2] was “binds” in each case.
